According to paper PMC3853347:

Columns and labels:
[1] = target: Flag-TDRD3 Tudor-deletion mutant (UniProt Q9H7E2); assay: co-IP
[2] = target: Flag-TDRD3 CTD-deletion mutant; assay: co-IP
Sequence of Flag-TDRD3 CTD-deletion mutant (Q9H7E2 whole entry, stated change not applied): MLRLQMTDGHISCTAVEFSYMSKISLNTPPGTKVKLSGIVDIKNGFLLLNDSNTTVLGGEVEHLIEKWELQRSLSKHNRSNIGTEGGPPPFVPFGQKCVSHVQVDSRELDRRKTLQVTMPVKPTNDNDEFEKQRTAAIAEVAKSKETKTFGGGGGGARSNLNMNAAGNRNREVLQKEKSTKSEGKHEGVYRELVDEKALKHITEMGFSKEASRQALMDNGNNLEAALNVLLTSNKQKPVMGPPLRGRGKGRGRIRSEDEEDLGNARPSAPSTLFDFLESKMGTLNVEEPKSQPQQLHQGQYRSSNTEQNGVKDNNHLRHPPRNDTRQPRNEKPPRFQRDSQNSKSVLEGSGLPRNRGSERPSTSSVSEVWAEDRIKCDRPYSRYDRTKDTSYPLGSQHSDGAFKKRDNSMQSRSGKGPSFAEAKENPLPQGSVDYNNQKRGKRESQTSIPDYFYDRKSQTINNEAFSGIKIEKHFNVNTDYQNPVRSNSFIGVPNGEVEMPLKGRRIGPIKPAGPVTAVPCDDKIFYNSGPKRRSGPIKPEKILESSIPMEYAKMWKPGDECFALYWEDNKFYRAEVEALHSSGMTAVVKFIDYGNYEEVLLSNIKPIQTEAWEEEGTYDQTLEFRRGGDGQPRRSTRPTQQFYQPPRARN

Sequence of Flag-TDRD3 Tudor-deletion mutant (Q9H7E2 whole entry, stated change not applied): as above
Sequence of FXR2, endogenous human (P51116 whole entry): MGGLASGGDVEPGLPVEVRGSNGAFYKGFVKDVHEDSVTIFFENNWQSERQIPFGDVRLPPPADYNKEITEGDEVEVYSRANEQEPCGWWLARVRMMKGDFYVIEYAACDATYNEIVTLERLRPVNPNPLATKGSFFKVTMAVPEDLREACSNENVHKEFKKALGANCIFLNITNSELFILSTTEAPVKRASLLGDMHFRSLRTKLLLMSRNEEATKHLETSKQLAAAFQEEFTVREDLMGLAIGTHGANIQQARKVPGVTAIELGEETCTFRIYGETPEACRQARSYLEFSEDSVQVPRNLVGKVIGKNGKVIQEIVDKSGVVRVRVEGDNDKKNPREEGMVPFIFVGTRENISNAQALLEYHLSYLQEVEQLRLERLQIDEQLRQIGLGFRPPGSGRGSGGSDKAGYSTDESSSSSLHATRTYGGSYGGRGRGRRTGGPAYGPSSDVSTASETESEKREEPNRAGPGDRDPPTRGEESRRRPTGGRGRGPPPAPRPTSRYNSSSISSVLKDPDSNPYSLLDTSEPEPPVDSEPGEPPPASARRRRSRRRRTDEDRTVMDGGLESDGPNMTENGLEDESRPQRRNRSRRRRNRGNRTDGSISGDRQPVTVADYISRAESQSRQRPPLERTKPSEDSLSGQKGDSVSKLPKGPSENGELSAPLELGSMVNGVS
Sequence of FXR1, endogenous human (P51114 whole entry): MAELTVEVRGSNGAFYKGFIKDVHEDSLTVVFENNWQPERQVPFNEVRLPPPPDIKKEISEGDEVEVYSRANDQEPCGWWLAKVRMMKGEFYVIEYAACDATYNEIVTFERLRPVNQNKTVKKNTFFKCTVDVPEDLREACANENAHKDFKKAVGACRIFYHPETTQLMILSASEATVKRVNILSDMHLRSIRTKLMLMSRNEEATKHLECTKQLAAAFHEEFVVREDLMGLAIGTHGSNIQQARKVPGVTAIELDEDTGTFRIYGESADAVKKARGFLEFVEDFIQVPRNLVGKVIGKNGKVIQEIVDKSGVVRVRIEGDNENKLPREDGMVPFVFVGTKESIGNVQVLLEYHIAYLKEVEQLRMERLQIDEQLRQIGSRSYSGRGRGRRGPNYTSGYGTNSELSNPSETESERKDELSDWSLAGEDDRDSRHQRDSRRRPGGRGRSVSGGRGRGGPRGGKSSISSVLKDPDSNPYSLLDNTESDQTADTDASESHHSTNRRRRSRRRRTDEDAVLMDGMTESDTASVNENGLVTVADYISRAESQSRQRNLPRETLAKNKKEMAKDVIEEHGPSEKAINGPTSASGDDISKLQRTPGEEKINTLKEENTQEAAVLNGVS

Row | Substance | reduction of the co-immunoprecipitated amount against wild-type TDRD3 [1] | reduction of the co-immunoprecipitated amount against wild-type TDRD3 [2]
1 | FMRP, endogenous human (from UniProt Q06787 1-632) (natural protein) | 30% | 80%
2 | FXR1, endogenous human (from UniProt P51114 1-621) (natural protein) | 30% | 80%
3 | FXR2, endogenous human (from UniProt P51116 1-673) (natural protein) | 30% | 80%
